In data set [1] the test system is HeLa Kyoto. Description: solubility in G1/S (NP-40 vs SDS abundance) (log2 ratio); higher = more soluble. The settings on record: cell cycle stage: G1/S.
Data set [2] has as its system HeLa Kyoto. In words: thermal stability score vs G1/S (z-score of summed log2 fold changes over temperatures); higher = more thermally stable than in G1/S.
For data set [3], the system named is HeLa Kyoto. Description: melting temperature (median over replicates), in situ; higher = more thermally stable.
In data set [4] the test system is HeLa Kyoto. In words: solubility change mitosis vs G1/S (difference of NP-40 vs SDS log2 ratios) (log2 ratio difference); higher = more soluble in mitosis.
Setting [5] is: cell cycle stage: early G1 (4.5 h after nocodazole release).
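Throughout, for melting temperature (median over replicates), in situ: HeLa Kyoto cells synchronized by double thymidine or nocodazole block, proteins quantified by TMT10plex mass spectrometry, three independent biological replicates.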
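Throughout, for solubility change mitosis vs G1/S (difference of NP-40 vs SDS log2 ratios): synchronized HeLa Kyoto cells (double thymidine block for G1/S, nocodazole release for mitosis), protein amounts in NP-40 versus SDS lysates quantified by mass spectrometry, three biological replicates.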
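Throughout, for solubility in G1/S (NP-40 vs SDS abundance): HeLa Kyoto cells arrested at G1/S by double thymidine block, proteins quantified by TMT10plex mass spectrometry in mild NP-40 versus SDS extracts, three biological replicates.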
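Throughout, for thermal stability score vs G1/S (z-score of summed log2 fold changes over temperatures): synchronized HeLa Kyoto cells, proteins quantified by TMT10plex mass spectrometry, three biological replicates, mitosis taken 0.5 h after nocodazole release, G1/S directly after double thymidine block.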

Turning to “MAASEAAVVSSPSLKTDTSPVLETAGTVAAMAATPSARAAAAVVAAAARTGSEARVSKAALATKLLSLSGVFAVHKPKGPTSAELLNRLKEKLLAEAGMPSPEWTKRKKQTLKIGHGGTLDSAARGVLVVGIGSGTKMLTSMLSGSKRYTAIGELGKATDTLDSTGRVTEEKPYDKITQEDIEGILQKFTGNIMQVPPLYSALKKDGQRLSTLMKRGEVVEAKPARPVTVYSISLQKFQPPFFTLDVECGGGFYIRSLVSDIGKELSSCANVLELTRTKQGPFTLEEHALPEDKWTIDDIAQSLEHCSSLFPAELALKKSKPESNEQVLSCEYITLNEPKREDDVIKTC [TRUB1]”, the “solubility in G1/S (log2)” value with HeLa Kyoto [1] came to 0.549. The thermal stability score in the data set on HeLa Kyoto [2] (setting [5]) was found to be 1.48; in the data set on HeLa Kyoto [2] (cell cycle stage: mitosis) it was 1.46. Also, the melting temperature in the data set on HeLa Kyoto [3] (cell cycle stage: G1/S) and with HeLa Kyoto [3] (cell cycle stage: mitosis) was 50.2 °C each time. Moreover, the “solubility change mitosis (log2)” value with HeLa Kyoto [4] is -0.0378.
For the sequence “MAASEVAGVVANAPSPPESSSLCASKSDEGLPDGLSTKDSAQKQKNSPLLSVSSQTITKENNRNVHLEHSEQNPGSSAGDTSAAHQVVLGENLIATALCLSGSGSQSDLKDVASTAGEEGDTSLRESLHPVTRSLKAGCHTKQLASRNCSEEKSPQTSILKEGNRDTSLDFRPVVSPANGVEGVRVDQDDDQDSSSLKLSQNIAVQTDFKTADSEVNTDQDIEKNLDKMMTERTLLKERYQEVLDKQRQVENQLQVQLKQLQQRREEEMKNHQEILKAIQDVTIKREETKKKIEKEKKEFLQKEQDLKAEIEKLCEKGRREVWEMELDRLKNQDGEINRNIMEETERAWKAEILSLESRKELLVLKLEEAEKEAELHLTYLKSTPPTLETVRSKQEWETRLNGVRIMKKNVRDQFNSHIQLVRNGAKLSSLPQIPTPTLPPPPSETDFMLQVFQPSPSLAPRMPFSIGQVTMPMVMPSADPRSLSFPILNPALSQPSQPSSPLPGSHGRNSPGLGSLVSPHGPHMPPAASIPPPPGLGGVKASAETPRPQPVDKLEKILEKLLTRFPQCNKAQMTNILQQIKTARTTMAGLTMEELIQLVAARLAEHERVAASTQPLGRIRALFPAPLAQISTPMFLPSAQVSYPGRSSHAPATCKLCLMCQKLVQPSELHPMACTHVLHKECIKFWAQTNTNDTCPFCPTLK [RNF214]”, the “solubility in G1/S (log2)” value with HeLa Kyoto [1] was found to be 0.486. Also, the thermal stability score in the data set on HeLa Kyoto [2] (setting [5]) is -0.221; with HeLa Kyoto [2] (cell cycle stage: mitosis), -0.95. Moreover, the melting temperature in the data set on HeLa Kyoto [3] (cell cycle stage: G1/S) stood at 49.8 °C; in the data set with HeLa Kyoto [3] (cell cycle stage: mitosis), 51.5 °C. Moreover, the “solubility change mitosis (log2)” value with HeLa Kyoto [4] was -0.0773.
With “MAASGAVEPGPPGAAVAPSPAPAPPPAPDHLFRPISAEDEEQQPTEIESLCMNCYCNGMTRLLLTKIPFFREIIVSSFSCEHCGWNNTEIQSAGRIQDQGVRYTLSVRALEDMNREVVKTDSAATRIPELDFEIPAFSQKGALTTVEGLITRAISGLEQDQPARRANKDATAERIDEFIVKLKELKQVASPFTLIIDDPSGNSFVENPHAPQKDDALVITHYNRTRQQEEMLGLQEEAPAEKPEEEDLRNEVLQFSTNCPECNAPAQTNMKLVQIPHFKEVIIMATNCENCGHRTNEVKSGGAVEPLGTRITLHITDASDMTRDLLKSETCSVEIPELEFELGMAVLGGKFTTLEGLLKDIRELVTKNPFTLGDSSNPGQTERLQEFSQKMDQIIEGNMKAHFIMDDPAGNSYLQNVYAPEDDPEMKVERYKRTFDQNEELGLNDMKTEGYEAGLAPQR [ZPR1]”, in the data set with HeLa Kyoto [1], the “solubility in G1/S (log2)” value stood at 0.433. Besides, the results for the thermal stability score in the data set with HeLa Kyoto [2] (setting [5]) and in the data set with HeLa Kyoto [2] (cell cycle stage: mitosis) were -0.562 and -0.171, respectively. Moreover, the melting temperature with HeLa Kyoto [3] (cell cycle stage: G1/S) is 52.6 °C; in the data set on HeLa Kyoto [3] (cell cycle stage: mitosis) it was 52.5 °C. Also, the “solubility change mitosis (log2)” value in the data set with HeLa Kyoto [4] was -0.0376.
Regarding “MAASMCDVFSFCVGVAGRARVSVEVRFVSSAKGKGLFATQLIRKGETIFVERPLVAAQFLWNALYRYRACDHCLRALEKAEENAQRLTGKPGQVLPHPELCTVRKDLHQNCPHCQVMYCSAECRLAATEQYHQVLCPGPSQDDPLHPLNKLQEAWRSIHYPPETASIMLMARMVATVKQAKDKDRWIRLFSQFCNKTANEEEEIVHKLLGDKFKGQLELLRRLFTEALYEEAVSQWFTPDGFRSLFALVGTNGQGIGTSSLSQWVHACDTLELKPQDREQLDAFIDQLYKDIEAATGEFLNCEGSGLFVLQSCCNHSCVPNAETSFPENNFLLHVTALEDIKPGEEICISYLDCCQRERSRHSRHKILRENYLFVCSCPKCLAEADEPNVTSEEEEEEEEEEEGEPEDAELGDEMTDV [SMYD5]”, the “solubility in G1/S (log2)” value with HeLa Kyoto [1] was -0.147. Besides, the thermal stability score with HeLa Kyoto [2] (setting [5]) was 1.21; with HeLa Kyoto [2] (cell cycle stage: mitosis) it was -0.768. Further, the melting temperature amounted to 53.4 °C in the data set with HeLa Kyoto [3] (cell cycle stage: G1/S) and 53.1 °C in the data set on HeLa Kyoto [3] (cell cycle stage: mitosis). For the same sequence, in the data set with HeLa Kyoto [4], the “solubility change mitosis (log2)” value was -0.154.
With “MAASMFYGRLVAVATLRNHRPRTAQRAAAQVLGSSGLFNNHGLQVQQQQQRNLSLHEYMSMELLQEAGVSVPKGYVAKSPDEAYAIAKKLGSKDVVIKAQVLAGGRGKGTFESGLKGGVKIVFSPEEAKAVSSQMIGKKLFTKQTGEKGRICNQVLVCERKYPRREYYFAITMERSFQGPVLIGSSHGGVNIEDVAAESPEAIIKEPIDIEEGIKKEQALQLAQKMGFPPNIVESAAENMVKLYSLFLKYDATMIEINPMVEDSDGAVLCMDAKINFDSNSAYRQKKIFDLQDWTQEDERDKDAAKANLNYIGLDGNIGCLVNGAGLAMATMDIIKLHGGTPANFLDVGGGATVHQVTEAFKLITSDKKVLAILVNIFGGIMRCDVIAQGIVMAVKDLEIKIPVVVRLQGTRVDDAKALIADSGLKILACDDLDEAARMVVKLSEIVTLAKQAHVDVKFQLPI [SUCLA2]”, the “solubility in G1/S (log2)” value in the data set on HeLa Kyoto [1] was found to be 0.0965. In addition, the results for the thermal stability score in the data set on HeLa Kyoto [2] (setting [5]) and with HeLa Kyoto [2] (cell cycle stage: mitosis) were -0.13 and 1.1, respectively. Besides, the results for the melting temperature in the data set on HeLa Kyoto [3] (cell cycle stage: G1/S) and in the data set on HeLa Kyoto [3] (cell cycle stage: mitosis) were 49.7 °C and 49.8 °C, respectively. In addition, the “solubility change mitosis (log2)” value with HeLa Kyoto [4] was -0.0729.
With “MAASRWARKAVVLLCASDLLLLLLLLPPPGSCAAEGSPGTPDESTPPPRKKKKDIRDYNDADMARLLEQWEKDDDIEEGDLPEHKRPSAPVDFSKIDPSKPESILKMTKKGKTLMMFVTVSGSPTEKETEEITSLWQGSLFNANYDVQRFIVGSDRAIFMLRDGSYAWEIKDFLVGQDRCADVTLEGQVYPGKGGGSKEKNKTKQDKGKKKKEGDLKSRSSKEENRAGNKREDL [MESDC2]”, the “solubility in G1/S (log2)” value in the data set on HeLa Kyoto [1] was 0.269. Also, the thermal stability score is 3.56 with HeLa Kyoto [2] (setting [5]) and 2.22 with HeLa Kyoto [2] (cell cycle stage: mitosis). Moreover, the values for the melting temperature with HeLa Kyoto [3] (cell cycle stage: G1/S) and with HeLa Kyoto [3] (cell cycle stage: mitosis) were 55.5 °C and 56.3 °C, respectively. The “solubility change mitosis (log2)” value in the data set on HeLa Kyoto [4] was -0.0464.
Regarding “MAATASAGAGGIDGKPRTSPKSVKFLFGGLAGMGATVFVQPLDLVKNRMQLSGEGAKTREYKTSFHALTSILKAEGLRGIYTGLSAGLLRQATYTTTRLGIYTVLFERLTGADGTPPGFLLKAVIGMTAGATGAFVGTPAEVALIRMTADGRLPADQRRGYKNVFNALIRITREEGVLTLWRGCIPTMARAVVVNAAQLASYSQSKQFLLDSGYFSDNILCHFCASMISGLVTTAASMPVDIAKTRIQNMRMIDGKPEYKNGLDVLFKVVRYEGFFSLWKGFTPYYARLGPHTVLTFIFLEQMNKAYKRLFLSG [SLC25A11]”, the “solubility in G1/S (log2)” value in the data set with HeLa Kyoto [1] was -0.0956. The thermal stability score in the data set with HeLa Kyoto [2] (setting [5]) is -1.46; in the data set with HeLa Kyoto [2] (cell cycle stage: mitosis), -2.54. The melting temperature with HeLa Kyoto [3] (cell cycle stage: G1/S) worked out at 59.1 °C; in the data set on HeLa Kyoto [3] (cell cycle stage: mitosis) it was 59.8 °C. For the same sequence, in the data set with HeLa Kyoto [4], the “solubility change mitosis (log2)” value was -0.187.
